Reference: article PMC3673817
pKd: −log10 of the molar value.

Biological target: FLAG-tagged full length EEA1 (Early endosomal autoantigen 1) (human) (UniProt Q15075)
Test: SPR; EEA1-FLAG amine-coupled to a CM5 chip (~2,000 RU), Biacore 2000, 25°C; E2 injected at 2.5 to 160 μM, 20 μL/min, in 10 mM Hepes pH 7.4, 150 mM NaCl, 3 mM EDTA, 0.005% surfactant P20; response plotted against the E2 concentration

Chain of UniProt Q15075 (Q15075 whole entry): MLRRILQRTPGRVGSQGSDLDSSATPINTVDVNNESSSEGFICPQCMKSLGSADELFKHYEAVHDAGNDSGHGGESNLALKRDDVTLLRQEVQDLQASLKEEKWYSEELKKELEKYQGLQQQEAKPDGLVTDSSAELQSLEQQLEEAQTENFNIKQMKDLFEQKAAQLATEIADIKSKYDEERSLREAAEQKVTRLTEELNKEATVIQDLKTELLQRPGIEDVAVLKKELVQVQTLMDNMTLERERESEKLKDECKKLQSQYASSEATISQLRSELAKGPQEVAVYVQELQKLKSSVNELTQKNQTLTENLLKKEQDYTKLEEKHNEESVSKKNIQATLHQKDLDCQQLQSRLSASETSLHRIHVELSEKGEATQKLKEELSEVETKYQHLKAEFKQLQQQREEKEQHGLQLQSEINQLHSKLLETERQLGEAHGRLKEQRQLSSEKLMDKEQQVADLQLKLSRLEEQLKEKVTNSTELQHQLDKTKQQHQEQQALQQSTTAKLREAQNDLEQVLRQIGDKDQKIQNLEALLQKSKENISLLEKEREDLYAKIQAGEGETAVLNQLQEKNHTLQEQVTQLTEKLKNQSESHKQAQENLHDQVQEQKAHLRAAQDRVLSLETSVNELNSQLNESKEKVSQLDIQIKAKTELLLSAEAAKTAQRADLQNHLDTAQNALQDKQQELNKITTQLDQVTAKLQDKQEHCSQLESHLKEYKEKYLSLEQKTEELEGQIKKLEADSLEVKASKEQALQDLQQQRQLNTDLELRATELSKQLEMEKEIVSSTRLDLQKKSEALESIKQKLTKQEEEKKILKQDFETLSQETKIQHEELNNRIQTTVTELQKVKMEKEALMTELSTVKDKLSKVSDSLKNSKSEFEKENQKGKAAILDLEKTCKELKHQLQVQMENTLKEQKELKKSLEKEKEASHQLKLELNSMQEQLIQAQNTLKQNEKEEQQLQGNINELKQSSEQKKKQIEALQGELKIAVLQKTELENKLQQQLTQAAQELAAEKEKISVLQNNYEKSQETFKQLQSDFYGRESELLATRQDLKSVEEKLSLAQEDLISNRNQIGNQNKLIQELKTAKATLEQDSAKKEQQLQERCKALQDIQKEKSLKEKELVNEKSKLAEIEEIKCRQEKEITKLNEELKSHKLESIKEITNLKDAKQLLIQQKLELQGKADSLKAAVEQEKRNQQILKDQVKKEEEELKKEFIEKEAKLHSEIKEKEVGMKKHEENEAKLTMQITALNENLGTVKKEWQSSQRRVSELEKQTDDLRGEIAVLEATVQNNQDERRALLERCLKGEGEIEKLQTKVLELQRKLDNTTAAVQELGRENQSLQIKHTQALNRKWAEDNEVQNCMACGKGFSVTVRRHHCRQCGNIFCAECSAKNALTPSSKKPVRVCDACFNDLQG

“Ube2A (HR6a) (from UniProt P49459 1-152) (enzyme; other documents disagree on this pair)” gave a pKd of 5.01.
